Patent US20040072207

System: raptor (Regulatory Associated Protein of mTOR), endogenous human protein

mTOR (mammalian target of rapamycin), endogenous protein of human cell lines
in vitro kinase activity of mTOR towards S6K1 (32P incorporation into GST-S6K1): the in vitro kinase activity of mTOR towards S6K1 inversely correlated with the amount of raptor recovered with mTOR
